Results on two molecules are retold here after paper PMC2174547 (The Journal of Cell Biology, 2000).

One assay addresses 6xHis-PEX19 (human) (UniProt P40855). The experiment in a line: far-Western, overlay or dot blot.
The target in another assay is T1, 6xHis-PEX19 (human, UniProt P40855 1-299).
T1 sequence: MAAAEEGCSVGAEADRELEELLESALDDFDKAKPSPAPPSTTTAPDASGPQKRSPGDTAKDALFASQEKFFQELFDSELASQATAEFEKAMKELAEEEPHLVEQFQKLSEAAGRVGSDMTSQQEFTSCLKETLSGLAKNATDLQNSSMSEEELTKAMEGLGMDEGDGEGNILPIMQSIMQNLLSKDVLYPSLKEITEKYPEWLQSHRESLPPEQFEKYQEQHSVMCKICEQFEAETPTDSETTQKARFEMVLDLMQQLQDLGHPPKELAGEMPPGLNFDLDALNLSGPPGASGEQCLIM
The experiment in a line: far-Western, overlay or dot blot.

One may read the Kd as a measure of binding affinity in units of concentration. A higher Kd goes with a looser complex. In general, IC50 refers to the concentration that gives 50% inhibition. Lower therefore signals greater potency.

Several values for one entry are separate records, joined by “and”; a condition that tells them apart may be missing. Equal entries are not always repeated.

As for “6xHis-PEX14 (from UniProt O75381 1-377) (natural protein)”, the equilibrium dissociation constant (Kd) with 6xHis-PEX19 (human) is 350 nM and 800 nM and 500 nM.

B1: 6xHis-PEX14 amino acids 1–147 (domain or fragment)
chain: MASSEQAEQPSQPSSTPGSENVLPREPLIATAVKFLQNSRVRQSPLATRRAFLKKKGLTDEEIDMAFQQSGTAADEPSSLGPATQVVPVQPPHLISQPYSPAGSRWRDYGALAIIMAGIAFGFHQLYKKYLLPLILGGREDRKQLER
On to B1, for which, in the assay with 6xHis-PEX19, 30000 nM corresponded to half-maximal inhibition (IC50).
